According to article PMC6994067:

Columns and labels:
Test in all cases: NMR
Conditions in all cases: 25 °C, not stated (10 mM citrate-phosphate buffer; no added salt mentioned), folded, free protein, 1 mM
[1] = molecular target: Asp14 (UniProt position 35, QKLIEDVNASF)
[2] = molecular target: Asp33 (UniProt position 54, NVPPADKYKTF)
[3] = molecular target: Asp52 (UniProt position 73, KRNLADAVSKA)
[4] = molecular target: Asp65 (UniProt position 86, LVPKLDEVYNA)
[5] = molecular target: Asp76 (UniProt position 97, AYNAADHAAPE)
[6] = molecular target: Asp82 (UniProt position 103, HAAPEDKYEAF)
[7] = molecular target: Glu103 (UniProt position 124, IAGTPEVHAVK)
[8] = molecular target: Glu13 (UniProt position 34, EQKLIEDVNAS)
[9] = molecular target: Glu39 (UniProt position 60, KYKTFEAAFTV)
[10] = molecular target: Glu66 (UniProt position 87, VPKLDEVYNAA)
[11] = molecular target: Glu7 (UniProt position 28, GKATTEEQKLI)
[12] = molecular target: Glu8 (UniProt position 29, KATTEEQKLIE)
[13] = molecular target: Glu81 (UniProt position 102, DHAAPEDKYEA)
[14] = molecular target: Glu85 (UniProt position 106, PEDKYEAFVLH)
[15] = molecular target: Glu93 (UniProt position 114, VLHFSEALRII)
[16] = molecular target: His105 (UniProt position 126, GTPEVHAVKPG)
[17] = molecular target: His77 (UniProt position 98, YNAADHAAPED)
[18] = molecular target: His90 (UniProt position 111, EAFVLHFSEAL)

Work on “Pollen allergen Phl p 6 (Phleum pratense (timothy grass))” yielded a pKa [1] of 3.50, a pKa [2] of 3.38 and a pKa [3] of 2.4. For the same substance, the pKa [4] was 4.80, the pKa [5] was 3.50 and the pKa [6] was 3.06. For the same substance, the pKa [7] was 3.65, the pKa [8] was 3.80 and the pKa [9] was 4.84. For the same substance, the pKa [10] was 4.06, the pKa [11] was 4.25 and the pKa [12] was 3.19. It also gave a pKa [13] of 3.52, a pKa [14] of 4.59 and a pKa [15] of 4.21. For the same substance, the pKa [16] was 6.5, the pKa [17] was 7.4 and the pKa [18] was 7.3.
